T1: monkey PTK7 protein (extracellular sequence of monkey PTK7 with C-terminal 6×His tag) (monkey)
T1 chain: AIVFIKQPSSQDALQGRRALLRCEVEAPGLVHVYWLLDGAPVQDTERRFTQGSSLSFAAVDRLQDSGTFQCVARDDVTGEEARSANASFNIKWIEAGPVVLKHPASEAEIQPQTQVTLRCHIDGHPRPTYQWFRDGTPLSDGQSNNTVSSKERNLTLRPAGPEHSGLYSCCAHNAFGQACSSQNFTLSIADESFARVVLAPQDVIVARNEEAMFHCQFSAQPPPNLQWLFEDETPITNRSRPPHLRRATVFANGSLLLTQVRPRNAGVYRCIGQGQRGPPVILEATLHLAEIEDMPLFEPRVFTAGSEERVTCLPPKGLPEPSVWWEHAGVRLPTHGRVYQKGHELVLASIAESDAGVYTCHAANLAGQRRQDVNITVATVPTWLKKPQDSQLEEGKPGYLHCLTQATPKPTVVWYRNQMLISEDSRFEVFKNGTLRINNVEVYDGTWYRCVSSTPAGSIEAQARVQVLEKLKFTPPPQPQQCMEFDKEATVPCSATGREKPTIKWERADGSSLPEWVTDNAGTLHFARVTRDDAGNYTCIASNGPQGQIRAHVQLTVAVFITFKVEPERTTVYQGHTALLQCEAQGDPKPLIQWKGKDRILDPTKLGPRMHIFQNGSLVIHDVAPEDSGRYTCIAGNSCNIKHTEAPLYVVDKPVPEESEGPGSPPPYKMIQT

T2: human PTK7 on cells (tumor cells endogenously expressing PTK7); CHO-hPTK7, CHO-S-hPTK7 and 293T-hPTK7 … (human, UniProt Q13308 31-1070)
T2 construct: whole, on cells; The cell line of each value is named under assay; also called H1299; H358
T2 sequence (looked up): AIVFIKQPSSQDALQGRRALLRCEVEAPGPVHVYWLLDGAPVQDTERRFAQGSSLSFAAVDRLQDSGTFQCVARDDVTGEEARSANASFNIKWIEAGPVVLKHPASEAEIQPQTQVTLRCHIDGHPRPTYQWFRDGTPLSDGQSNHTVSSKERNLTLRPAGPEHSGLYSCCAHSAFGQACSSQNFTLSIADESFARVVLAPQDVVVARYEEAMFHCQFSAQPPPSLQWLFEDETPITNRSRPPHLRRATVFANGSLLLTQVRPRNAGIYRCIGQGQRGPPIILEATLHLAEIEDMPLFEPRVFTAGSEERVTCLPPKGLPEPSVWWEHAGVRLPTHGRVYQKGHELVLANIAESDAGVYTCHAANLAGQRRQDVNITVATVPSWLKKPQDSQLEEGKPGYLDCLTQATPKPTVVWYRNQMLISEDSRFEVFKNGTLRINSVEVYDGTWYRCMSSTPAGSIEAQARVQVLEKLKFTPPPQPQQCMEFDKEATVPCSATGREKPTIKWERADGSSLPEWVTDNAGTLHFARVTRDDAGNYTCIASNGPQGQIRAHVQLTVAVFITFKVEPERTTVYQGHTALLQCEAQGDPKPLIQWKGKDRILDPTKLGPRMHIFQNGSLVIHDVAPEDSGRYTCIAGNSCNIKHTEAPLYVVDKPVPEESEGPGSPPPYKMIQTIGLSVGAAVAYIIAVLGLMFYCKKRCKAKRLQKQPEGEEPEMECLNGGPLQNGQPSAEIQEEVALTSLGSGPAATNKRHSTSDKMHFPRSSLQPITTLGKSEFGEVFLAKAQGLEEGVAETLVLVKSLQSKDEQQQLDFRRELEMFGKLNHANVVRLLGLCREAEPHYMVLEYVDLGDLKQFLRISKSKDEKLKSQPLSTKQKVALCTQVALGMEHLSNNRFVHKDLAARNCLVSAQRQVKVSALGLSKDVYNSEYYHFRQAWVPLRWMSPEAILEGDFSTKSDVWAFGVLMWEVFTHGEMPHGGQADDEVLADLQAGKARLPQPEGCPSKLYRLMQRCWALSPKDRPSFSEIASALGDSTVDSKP

T3: human PTK7 protein (extracellular sequence of human PTK7 with C-terminal 6×His tag) (human, UniProt Q13308 31-704)
T3 construct: extracellular domain; Expressed transiently in HEK293 cells; also called human PTK7-His; human PTK7-His protein
T3 sequence: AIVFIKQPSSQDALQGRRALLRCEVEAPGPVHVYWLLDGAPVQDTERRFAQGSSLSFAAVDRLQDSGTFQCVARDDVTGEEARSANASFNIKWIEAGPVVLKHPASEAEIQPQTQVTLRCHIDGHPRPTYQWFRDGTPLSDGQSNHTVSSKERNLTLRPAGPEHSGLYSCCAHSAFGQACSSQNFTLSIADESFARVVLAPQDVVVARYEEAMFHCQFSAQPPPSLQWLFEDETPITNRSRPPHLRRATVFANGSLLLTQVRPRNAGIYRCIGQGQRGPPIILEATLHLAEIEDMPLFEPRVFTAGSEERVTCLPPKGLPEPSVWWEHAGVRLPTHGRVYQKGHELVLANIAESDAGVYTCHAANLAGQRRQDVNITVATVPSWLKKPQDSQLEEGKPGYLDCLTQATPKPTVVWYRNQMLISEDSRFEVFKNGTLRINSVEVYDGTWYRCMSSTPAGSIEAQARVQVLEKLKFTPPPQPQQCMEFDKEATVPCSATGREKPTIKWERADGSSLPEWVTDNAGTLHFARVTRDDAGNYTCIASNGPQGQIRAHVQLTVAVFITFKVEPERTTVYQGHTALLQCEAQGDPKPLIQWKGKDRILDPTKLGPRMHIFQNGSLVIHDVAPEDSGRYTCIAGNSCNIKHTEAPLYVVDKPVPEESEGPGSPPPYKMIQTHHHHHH


Key:
[1] = biological target: T1, monkey PTK7 protein (extracellular …); experiment: ELISA, coated monkey PTK7 protein 1 µg/ml
Experimental: Original data was imported into software for nonlinear curve fitting, and EC₅₀ of binding of each antibody to human PTK7 and monkey PTK7 was calculated, respectively. As shown in Table 1 and FIGS. 1A-1B, the screened antibodies could be bound to the human and monkey PTK7 proteins with affinity higher than that of the control antibody Hu24.

[2] = biological target: T2, human PTK7 on cells (tumor cells …); experiment: competition flow cytometry on 293T-hPTK7 cells, streptavidin-PE; competitor: biotin-labelled Hu24
[3] = biological target: T3, human PTK7 protein (extracellular …); experiment: competition ELISA on coated human PTK7 protein; competitor: biotin-labelled 101A6HZ at a fixed concentration
Experimental: The human PTK7 protein was diluted to reach 1 μg/ml by using the CBS coating liquid, coated by a 96-well microtiter plate at a density of 100 μl/well, and stood overnight at 4° C.; and after the plate was washed and blocked, the biotin-labeled antibody and the to-be-detected antibody were added, and incubated for 2 h at room temperature. After the plate was washed, the secondary antibody was added for incubation, and finally was subjected to color development, then the reaction was terminated, and the absorbance at OD₄₅₀ nm was read by the microplate reader. The original data was imported into software for nonlinear curve fitting (four parameters).

Binder	EC50 [1] [µg/mL]	IC50 (read off the curve) [2] [ng/mL]	IC50 (read off the curve) [3] [ng/mL]
Hu24 (PTK7 control antibody, taken from Hu24 in the Patent CN201580030255) (antibody) chain 1: QVQLVQSGPEVKKPGASVKVSCKASGYTFTDYAVHWVRQAPGKRLEWIGVISTYNDYTYNNQDFKGRVTMTRDTSASTAYMELSRLRSEDTAVYYCARGNSYFYALDYWGQGTSVTVSS chain 2: EIVLTQSPATLSLSPGERATLSCRASESVDSYGKSFMHWYQQKPGQAPRLLIYRASNLESGIPARFSGSGSGTDFTLTISSLEPEDFAVYYCQQSNEDPWTFGGGTKLEIK	0.0133	~300	–
101A6HZ (anti-human PTK7 humanized antibody) (antibody, human IgG1, kappa) heavy: not shown light: DIVMTQSPDSLAVSLGERATINCKASQDVGSAVIWYQQKPGQSPKLLIYWASTRHTGVPDRFSGSGSGTDFTLTISSLQAEDVAVYYCQQYSSYPLTFGQGTKLEIKRTVAAPSVFIFPPSDEQLKSGTASVVCLLNNFYPREAKVQWKVDNALQSGNSQESVTEQDSKDSTYSLSSTLTLSKADYEKHKVYACEVTHQGLSSPVTKSFNRGEC	–	–	~80

— US20260250420A1 (SICHUAN KELUN BIOTECH BIOPHARMACEUTICAL, published 2026)
